Source: patent US20200317768A1 (published 2020)
Substitutions are numbered along the chain they refer to.

T1: cynomolgus monkey FcγRIIa1 extracellular domain, C-terminal His-tag (cynomolgus monkey)
T1 construct: also called cyno FcγRIIa1; cynoFcgRIIa1; not shown: His-tag added to C-terminus
T1 chain: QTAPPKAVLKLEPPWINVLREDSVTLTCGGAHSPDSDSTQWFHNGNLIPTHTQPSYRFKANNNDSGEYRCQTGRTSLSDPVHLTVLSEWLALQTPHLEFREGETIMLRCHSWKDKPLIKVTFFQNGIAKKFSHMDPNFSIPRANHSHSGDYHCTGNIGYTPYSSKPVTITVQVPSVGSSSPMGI

T2: cynomolgus monkey FcγRIIa2 extracellular domain, C-terminal His-tag (cynomolgus monkey)
T2 construct: also called cyno FcγRIIa2; cynoFcgRIIa2; not shown: His-tag added to C-terminus
T2 chain: T1 chain with P95T, T121A, I127K, A128S, K130N, D135N, R142Q

T3: cynomolgus monkey FcγRIIa3 extracellular domain, C-terminal His-tag (cynomolgus monkey)
T3 construct: also called cyno FcγRIIa3; cynoFcgRIIa3; not shown: His-tag added to C-terminus
T3 chain: T1 chain with P95T, T121A, A128S, H133P, D135N

T4: cynomolgus monkey FcγRIIb extracellular domain, C-terminal His-tag (cynomolgus monkey)
T4 construct: also called cyno FcγRIIb; cynoFcγRIIb; not shown: His-tag added to C-terminus
T4 chain: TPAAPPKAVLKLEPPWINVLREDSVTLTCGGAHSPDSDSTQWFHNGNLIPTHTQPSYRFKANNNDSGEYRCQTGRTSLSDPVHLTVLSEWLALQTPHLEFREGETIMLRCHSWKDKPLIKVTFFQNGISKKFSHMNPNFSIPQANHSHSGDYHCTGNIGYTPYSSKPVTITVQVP

T5: human FcγRIIaH extracellular domain, C-terminal His-tag (human, UniProt P12318 34-217)
T5 construct: also called human FcγRIIa (type H); FcgRIIaH; not shown: His-tag added to C-terminus
T5 sequence: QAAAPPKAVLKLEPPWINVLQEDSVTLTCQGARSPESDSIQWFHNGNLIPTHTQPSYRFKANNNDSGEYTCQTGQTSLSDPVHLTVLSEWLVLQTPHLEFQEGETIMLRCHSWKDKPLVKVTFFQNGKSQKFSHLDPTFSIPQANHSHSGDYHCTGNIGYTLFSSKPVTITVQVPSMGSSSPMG

T6: human FcγRIIaR extracellular domain, C-terminal His-tag (human, UniProt P12318 34-217)
T6 construct: also called human FcγRIIa (type R); FcgRIIaR; not shown: His-tag added to C-terminus
T6 chain: T5 sequence with H134R

B1: M103205H795-MY271/M103202L889-SK1 (antibody, human IgG1, kappa)
heavy: QVTLKESGPVLVKPTETLTLTCTVSGIDLSHDDISWVRQAPGKGLEWVGIISYAGSTYYASWAKGRLTISKDTSKNQVVLTMTNMDPVDTATYYCARGVPAYSHGGDLWGQGTLVTVSSASTKGPSVFPLAPSSKSTSGGTAALGCLVKDYFPEPVTVSWNSGALTSGVHTFPAVLQSSGLYSLSSVVTVPSSSLGTQTYICNVNHKPSNTKVDKKVEPKSCDKTHTCPPCPAPELLVGPSVFLFPPKPKDTLMISRTPEVTCVVVDVSDEDPEVKFNWYVDGVEVHNAKTKPREEQYNSTYRVVSVLTVLHQDWLNGKEYKCKVSNKALPKPIEKTISKAKGQPREPQVYTLPPSREEMTKNQVSLTCLVKGFYPSDIAVEWESNGQPENNYKTTPKVLDSDGSFFLYSKLTVDKSRWQQGNVFSCSVMHEALHNHYTQKSLSLSP
light: DIVMTQSPATLSLSPGERATLSCTSSQSVYHANWLSWFQQKPGQPPKLLIYWASTLAYGVPSRFSGSGSGTDFTLTISSLQPEDAATYYCAGGYGGGRYAFGQGTKVEIKRTVAAPSVFIFPPSDEQLKSGTASVVCLLNNFYPREAKVQWKVDNALQSGNSQESVTEQDSKDSTYSLSSTLTLSKADYEKHKVYACEVTHQGLSSPVTKSFNRGEC
B2: M103205H795-MY311/M103202L889-SK1 (antibody, human IgG1, kappa)
heavy: B1 heavy with V238T, D270E, Q297L, K398P
light: B1 light
B3: M103205H795-MY273/M103202L889-SK1 (antibody, human IgG1, kappa)
heavy: B1 heavy with V238L
light: B1 light
B4: M103205H795-MY274/M103202L889-SK1 (antibody, human IgG1, kappa)
heavy: B1 heavy with V238T
light: B1 light
B5: M103205H795-MY276/M103202L889-SK1 (antibody, human IgG1, kappa)
heavy: B1 heavy with V238I
light: B1 light
B6: M103205H795-MY310/M103202L889-SK1 (antibody, human IgG1, kappa)
heavy: B1 heavy with V238T, D270E, K328T, K398P
light: B1 light
B7: M103205H795-MY292/M103202L889-SK1 (antibody, human IgG1, kappa)
heavy: B1 heavy with V238G, G239Y, Q297L, K398M
light: B1 light
B8: M103205H795-MY272/M103202L889-SK1 (antibody, human IgG1, kappa)
heavy: B1 heavy with V238Q
light: B1 light
B9: M103205H795-MY293/M103202L889-SK1 (antibody, human IgG1, kappa)
heavy: B1 heavy with V238G, G239Y, D270E, Q297L
light: B1 light
B10: M103205H795-MY280/M103202L889-SK1 (antibody, human IgG1, kappa)
heavy: B1 heavy with Q297L, K398P
light: B1 light
B11: M103205H795-MY308/M103202L889-SK1 (antibody, human IgG1, kappa)
heavy: B1 heavy with V238T, D270E, K398P
light: B1 light
B12: M103205H795-MY279/M103202L889-SK1 (antibody, human IgG1, kappa)
heavy: B1 heavy with V238H, Q297L, K398P
light: B1 light
B13: M103205H795-MY281/M103202L889-SK1 (antibody, human IgG1, kappa)
heavy: B1 heavy with V238Q, Q297L, K398P
light: B1 light
B14: M103205H795-MY278/M103202L889-SK1 (antibody, human IgG1, kappa)
heavy: B1 heavy with V238M, Q297L, K398P
light: B1 light
B15: M103205H795-MY309/M103202L889-SK1 (antibody, human IgG1, kappa)
heavy: B1 heavy with V238T, D270E, K398M
light: B1 light
B16: M103205H795-MY312/M103202L889-SK1 (antibody, human IgG1, kappa)
heavy: B1 heavy with V238T, D270E, K328T, K398M
light: B1 light

Target: T1, cynomolgus monkey FcγRIIa1 …
Assay: SPR (Biacore), antibody captured, FcgR analyte, 25 C

Kd	Binder
760 nM	B1
2300 nM	B2
3700 nM	B3
830 nM	B4
1100 nM	B5
3000 nM	B6
1500 nM	B7
1900 nM	B8
2300 nM	B9
1000 nM	B10
3900 nM	B11
2800 nM	B12
1900 nM	B13
3000 nM	B14
3500 nM	B15
1400 nM	B16

Target: T2, cynomolgus monkey FcγRIIa2 …
Assay: as above

Kd	Binder
700 nM	B1
3400 nM	B2
3500 nM	B3
800 nM	B4
1300 nM	B5
2900 nM	B6
2500 nM	B7
1900 nM	B8
3300 nM	B9
1200 nM	B10
4600 nM	B11
3300 nM	B12
2500 nM	B13
3600 nM	B14
2500 nM	B15
1500 nM	B16

Target: T3, cynomolgus monkey FcγRIIa3 …
Assay: as above

Kd	Binder
3100 nM	B1
8600 nM	B2
11000 nM	B3
2000 nM	B4
4300 nM	B5
7200 nM	B6
2200 nM	B7
6200 nM	B8
3900 nM	B9
4600 nM	B10
1100 nM	B11
4700 nM	B12
9100 nM	B13
10000 nM	B14
7000 nM	B15
3700 nM	B16

Target: T4, cynomolgus monkey FcγRIIb extracellular …
Assay: as above

Kd	Binder
190 nM	B1
780 nM	B2
1200 nM	B3
230 nM	B4
310 nM	B5
950 nM	B6
430 nM	B7
430 nM	B8
860 nM	B9
330 nM	B10
1300 nM	B11
910 nM	B12
620 nM	B13
1300 nM	B14
710 nM	B15
400 nM	B16

The binders below were run against T7, cynomolgus monkey FcγRIIIaS extracellular domain, C-terminal His-tag (cynomolgus monkey, UniProt A3RFZ7 21-206 (rhesus entry)) in the same assay as above.
T7 construct: also called cyno FcγRIIIaS; cynoFcγRIIIaS; not shown: His-tag added to C-terminus
T7 sequence (A3RFZ7 21-206): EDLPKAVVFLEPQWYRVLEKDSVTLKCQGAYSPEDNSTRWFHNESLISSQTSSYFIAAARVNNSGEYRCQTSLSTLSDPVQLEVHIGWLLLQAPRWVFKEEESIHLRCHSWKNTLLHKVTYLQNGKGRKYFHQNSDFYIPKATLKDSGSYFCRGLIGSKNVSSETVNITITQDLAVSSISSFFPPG

Kd	Binder
870 nM	B1
2400 nM	B2
1700 nM	B3
670 nM	B4
1200 nM	B5
1800 nM	B6
4000 nM	B7
290 nM	B8
4200 nM	B9
1800 nM	B10
2900 nM	B11
2400 nM	B12
740 nM	B13
740 nM	B14
1200 nM	B15
650 nM	B16

The binders below were run against T5, human FcγRIIaH extracellular domain, … in the same assay as above.

Kd	Binder
44 nM	B1
200 nM	B2
510 nM	B3
8100 nM	B4
53 nM	B5
400 nM	B6
950 nM	B7
92 nM	B8
1300 nM	B9
81 nM	B10
450 nM	B11
140 nM	B12
130 nM	B13
530 nM	B14
140 nM	B15
110 nM	B16

Target: T6, human FcγRIIaR extracellular domain, …
Assay: as above

Kd	Binder
2300 nM	B1
450 nM	B2
1000 nM	B3
170 nM	B4
250 nM	B5
550 nM	B6
76 nM	B7
250 nM	B8
73 nM	B9
450 nM	B10
360 nM	B11
720 nM	B12
390 nM	B13
1300 nM	B14
260 nM	B15
170 nM	B16

What follows are binders tested against T8, human FcγRIIIaV extracellular domain, C-terminal His-tag (human, UniProt P08637 17-208) in the same assay as above.
T8 construct: also called FcgRIIIaV; not shown: His-tag added to C-terminus
T8 sequence (P08637 17-208 F176V): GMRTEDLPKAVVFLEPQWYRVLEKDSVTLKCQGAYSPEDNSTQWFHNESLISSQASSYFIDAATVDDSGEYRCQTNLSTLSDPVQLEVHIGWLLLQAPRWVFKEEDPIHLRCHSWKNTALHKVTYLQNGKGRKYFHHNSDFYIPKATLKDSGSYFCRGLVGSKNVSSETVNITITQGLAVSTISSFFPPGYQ

Kd	Binder
2300 nM	B1
7100 nM	B2
9700 nM	B3
2500 nM	B4
5700 nM	B5
6900 nM	B6
28000 nM	B7
870 nM	B8
39000 nM	B9
4400 nM	B10
8300 nM	B11
7000 nM	B12
2100 nM	B13
3400 nM	B14
4300 nM	B15
2800 nM	B16
